From US20250320281A1 come the findings set out here.

Test in all cases: cell-based or functional assay
Assay [1] addresses HIV-1 Env of pseudovirus MGRM-F1-013 (HIV-1).
Assay [2] has as its target HIV-1 92RW020 Env (HIV-1 92RW020).
For assay [3], the target named is HIV-1 92TH021 Env on pseudotyped virus (HIV-1 isolate 92TH021).
Assay [4] addresses HIV-1 SF162 Env on pseudotyped virus (HIV-1 isolate SF162).
The target of assay [5] is aMLV envelope on pseudotyped virus (negative control) (aMLV).
In assay [6] the target is HIV-1 APV6 envelope glycoprotein (Env) on pseudovirus (HIV-1).
In assay [7] the target is HIV-1 Env of isolate 93MW959 (HIV-1).
For assay [8], the target named is HIV-1 Env of isolate MGRM-AG-001 (HIV-1).
For assay [9], the target named is HIV-1 Env of isolate MGRM-AG-005 (HIV-1).
For assay [10], the target named is HIV-1 MGRM-AG-005 envelope glycoprotein (Env) on pseudovirus (HIV-1).
Assay [11] addresses HIV-1 MGRM-C-026 envelope glycoprotein (Env) on pseudovirus (HIV-1).
Assay [12] deals with HIV-1 MGRM-C-027 envelope glycoprotein (Env) on pseudovirus (HIV-1).
The target of assay [13] is HIV-1 MGRM-C-028 envelope glycoprotein (Env) on pseudovirus (HIV-1).
In assay [14] the target is HIV-1 MGRM-D-018 envelope glycoprotein (Env) on pseudovirus (HIV-1).
The target in assay [15] is HIV-1 Env of isolate 92WR020 (subtype A) (HIV-1).
Assay [16] has as its target HIV-1 envelope glycoprotein (Env) of isolate 6535.3 (HIV-1).
For assay [17], the target named is HIV-1 envelope glycoprotein (Env) of isolate APV_6 (HIV-1).
Assay [18] addresses HIV-1 envelope glycoprotein (Env) of isolate MGRM-Chronic-B-002 (HIV-1).
Assay [19] addresses HIV-1 envelope glycoprotein (Env) of isolate MGRM-Chronic-B-003 (HIV-1).
Assay [20] concerns the target HIV-1 Env of isolate 92UG046 (clade D), on pseudovirus (HIV-1).
In assay [21] the target is HIV-1 Env of isolate 92UG114 (clade D), on pseudovirus (HIV-1).
Assay [22] has as its target HIV-1 Env of isolate APV17 (HIV-1).
The target in assay [23] is HIV-1 Env of isolate MG RM-D-002 (clade D), on pseudovirus (HIV-1).
The target in assay [24] is HIV-1 Env of isolate MG RM-D-005 (clade D), on pseudovirus (HIV-1).
For assay [25], the target named is HIV-1 Env of isolate MG RM-D-011 (clade D), on pseudovirus (HIV-1).
Assay [26] has as its target HIV-1 Env of isolate MG RM-D-013 (clade D), on pseudovirus (HIV-1).
Assay [27] concerns the target HIV-1 Env of isolate MG RM-D-019 (clade D), on pseudovirus (HIV-1).
Assay [28] has as its target HIV-1 Env of isolate MG RM-D-020 (clade D), on pseudovirus (HIV-1).
Assay [29] deals with HIV-1 Env of isolate MG RM-D-024 (clade D), on pseudovirus (HIV-1).
Assay [30] concerns the target HIV-1 Env of isolate MGRM-C-026 (clade C pseudovirus) (HIV-1).
Assay [31] deals with HIV-1 Env of isolate MGRM-C-027 (clade C pseudovirus) (HIV-1).
Assay [32] has as its target HIV-1 Env of isolate MGRM-Chronic-B-004 (HIV-1).
The target in assay [33] is HIV-1 Env of isolate MGRM-Chronic-B-018 (HIV-1).
Assay [34] deals with HIV-1 Env of isolate MGRM-F1-004 (clade F), on pseudovirus (HIV-1).
For assay [35], the target named is HIV-1 Env of isolate MGRM-F1-006 (clade F), on pseudovirus (HIV-1).
The target in assay [36] is HIV-1 Env of isolate MGRM-F1-010 (clade F), on pseudovirus (HIV-1).
Assay [37] addresses HIV-1 Env of isolate MGRM-F1-012 (clade F), on pseudovirus (HIV-1).
In assay [38] the target is HIV-1 Env of isolate MGRM-F1-016 (clade F), on pseudovirus (HIV-1).
Assay [39] concerns the target HIV-1 Env of isolate MGRM-F1-020 (clade F pseudovirus) (HIV-1).
The target of assay [40] is HIV-1 Env of pseudovirus 92WR020 (subtype A) (HIV-1).
In assay [41] the target is HIV-1 Env of pseudovirus 92WR026 (subtype A) (HIV-1).

Sequence of 4993_K13 (PGT-141) (antibody) (VH): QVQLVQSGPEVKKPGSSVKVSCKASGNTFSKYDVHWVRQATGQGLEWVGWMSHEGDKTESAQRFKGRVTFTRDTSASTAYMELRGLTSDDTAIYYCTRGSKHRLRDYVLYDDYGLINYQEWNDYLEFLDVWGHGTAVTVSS
Sequence of 4993_K13 (PGT-141) (antibody) (VL): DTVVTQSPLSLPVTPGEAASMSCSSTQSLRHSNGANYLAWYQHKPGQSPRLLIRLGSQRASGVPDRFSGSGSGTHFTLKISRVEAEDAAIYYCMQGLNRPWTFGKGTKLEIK
Sequence of 4995_E20 (PGT-142) (antibody) (VH): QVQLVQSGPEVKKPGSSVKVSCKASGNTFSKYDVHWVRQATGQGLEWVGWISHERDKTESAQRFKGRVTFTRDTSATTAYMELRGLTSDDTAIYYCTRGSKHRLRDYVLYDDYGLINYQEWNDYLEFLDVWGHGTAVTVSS
Sequence of 4970_K22 (PGT-144) (antibody) (VH): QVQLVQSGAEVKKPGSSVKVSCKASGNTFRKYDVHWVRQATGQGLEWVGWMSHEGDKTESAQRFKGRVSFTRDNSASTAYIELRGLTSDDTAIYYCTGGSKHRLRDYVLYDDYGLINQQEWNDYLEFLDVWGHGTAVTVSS
Sequence of 4970_K22 (PGT-144) (antibody) (VL): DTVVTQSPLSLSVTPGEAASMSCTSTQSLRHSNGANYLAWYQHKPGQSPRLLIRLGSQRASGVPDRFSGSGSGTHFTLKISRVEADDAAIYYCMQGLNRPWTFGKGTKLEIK
Sequence of 1443_C16 (PG16) (TCN-116) (antibody) (VH): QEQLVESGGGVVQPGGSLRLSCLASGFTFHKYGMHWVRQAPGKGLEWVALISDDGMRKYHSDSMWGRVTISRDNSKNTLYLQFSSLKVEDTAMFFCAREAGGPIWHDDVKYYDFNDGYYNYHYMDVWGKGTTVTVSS
Sequence of 1443_C16 (PG16) (TCN-116) (antibody) (VL): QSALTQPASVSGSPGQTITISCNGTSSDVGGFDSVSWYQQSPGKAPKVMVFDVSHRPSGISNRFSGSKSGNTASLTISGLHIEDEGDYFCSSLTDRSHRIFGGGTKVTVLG
Sequence of 4980_N08 (PGT-143) (antibody) (VH): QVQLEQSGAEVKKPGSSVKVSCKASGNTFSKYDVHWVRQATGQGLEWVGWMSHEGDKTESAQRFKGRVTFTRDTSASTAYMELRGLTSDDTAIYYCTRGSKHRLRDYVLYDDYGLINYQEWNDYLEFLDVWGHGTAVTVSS
Sequence of 4980_N08 (PGT-143) (antibody) (VL): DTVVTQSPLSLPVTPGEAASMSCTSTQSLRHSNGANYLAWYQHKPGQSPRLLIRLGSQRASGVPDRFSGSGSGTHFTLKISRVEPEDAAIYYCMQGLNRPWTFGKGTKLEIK

In assay [1], 2F5 (antibody) returned an IC50 (µg/ml), pseudovirus neutralization of 4.57 µg/mL.
Substance 2G12 (antibody) came in with an IC50 (µg/ml), pseudovirus neutralization in assay [1] of more than 50 µg/mL.
1443_C16 (PG16) (TCN-116) (antibody) showed an IC50 (ug/ml), pseudovirus neutralization, TZM-bl assay in assay [2] of 0.09 µg/mL. For the same substance, the Neutralizing Antibody Assay: IC50; Virus/Ab Incubation 1 hour is 0.136 µg/mL in assay [3], more than 50000 ng/mL in assay [4] and more than 50 µg/mL in assay [5]. In addition, the values for the Neutralizing Antibody Assay: IC50; Virus/Ab Incubation 18 hour in [3], in assay [4] and in assay [5] were 0.0435 µg/mL, more than 50 µg/mL and more than 50 µg/mL, respectively.
As to 1495_C14 (PGC14) (antibody), the Neutralizing Antibody Assay: IC50; Virus/Ab Incubation 1 hour in assay [3] is more than 50 µg/mL; in [4], 6.9 ng/mL; in [5], more than 50 µg/mL. For the same substance, the Neutralizing Antibody Assay: IC50; Virus/Ab Incubation 18 hour in assay [3] is more than 50 µg/mL; in assay [4], less than 0.0025 µg/mL; in assay [5] it was more than 50 µg/mL. In assay [1], this substance yielded an IC50 (µg/ml), pseudovirus neutralization of 6 µg/mL.
Take 4858_P08 (PGT-123) (antibody): the neutralization IC50 in assay [6] was found to be 0.0328 µg/mL; in assay [7], 0.011 µg/mL; in [10], 0.104 µg/mL; in [11] it was 3.1 ng/mL; in assay [12], 0.0169 µg/mL; in [13], 0.443 µg/mL. This substance showed a neutralization IC50 in assay [14] of 4.7 ng/mL. In addition, the neutralization IC80 in assay [6] came out at 0.145 µg/mL; in assay [10], 1.28 µg/mL; in assay [11], 9.4 ng/mL; in assay [12], 0.149 µg/mL; in assay [13], 2.8 µg/mL; in [14] it was 0.0175 µg/mL. In addition, the neutralization IC90 in [6] was 0.339 µg/mL; in [10], 6.38 µg/mL; in assay [11], 0.0183 µg/mL; in assay [12], more than 10 µg/mL; in assay [13], 7.11 µg/mL; in assay [14], 0.0381 µg/mL. The neutralization IC95 in assay [6] is 0.726 µg/mL; in assay [10], more than 10 µg/mL; in assay [11] it was 0.0338 µg/mL; in assay [12] it was more than 10 µg/mL; in assay [13], more than 10 µg/mL; in assay [14], 0.0791 µg/mL. The IC50 – broadly, the concentration that inhibits the measured activity by half – in assay [8] was 2.51 µg/mL; in assay [9], 0.149 µg/mL.
As for 4877_D15 (PGT-122) (antibody), the neutralization IC50 in assay [7] was found to be 0.016 µg/mL. In addition, the values for the IC50 in [8] and in assay [9] were 14.5 µg/mL and 33.9 µg/mL, respectively.
Take 4970_K22 (PGT-144) (antibody): the IC50 (µg/mL), pseudovirus neutralization in assay [15] is more than 50 µg/mL; in [16] it was more than 50 µg/mL; in assay [17], more than 50 µg/mL; in assay [18], more than 50 µg/mL; in assay [19], 7.41 µg/mL.
Consider 4980_N08 (PGT-143) (antibody), for which the IC50 (µg/mL), pseudovirus neutralization in assay [15] was more than 50 µg/mL; in assay [16] it was more than 50 µg/mL; in assay [17], 14 µg/mL; in assay [18] it was more than 50 µg/mL; in [19], 0.854 µg/mL.
Turning to 4993_K13 (PGT-141) (antibody), the IC50 (µg/mL), pseudovirus neutralization in [15] is more than 50 µg/mL; in assay [16] it was more than 50 µg/mL; in [17], 14.2 µg/mL; in [18], more than 50 µg/mL; in assay [19] it was 0.4 µg/mL.
Take 4995_E20 (PGT-142) (antibody): the IC50 (µg/mL), pseudovirus neutralization in [15] is 31.5 µg/mL; in [16], more than 50 µg/mL; in assay [17], 4.72 µg/mL; in assay [18], more than 50 µg/mL; in assay [19] it was 0.484 µg/mL.
5123_A06 (PGT-125) (antibody): the neutralization IC50 in assay [7] amounted to 37.5 µg/mL. In addition, the half-maximal inhibitory concentration (IC50) in assay [8] and in assay [9] was more than 50 µg/mL in each case.
Turning to 5141_B17 (PGT-126) (antibody), the IC50, pseudovirus neutralization was found to be 0.0249 µg/mL in assay [6]; 1.35 µg/mL in [10]; 7.6 ng/mL in assay [11]; 1.14 µg/mL in assay [12]; 0.283 µg/mL in assay [13]; 9.3 ng/mL in assay [14]. The IC80 (pseudovirus neutralization) in assay [6] is 0.0681 µg/mL; in [10], more than 10 µg/mL; in [11], 0.0345 µg/mL; in assay [12] it was more than 10 µg/mL; in [13] it was 2.62 µg/mL; in assay [14] it was 0.0391 µg/mL. Moreover, the IC90 (pseudovirus neutralization) in [6] was 0.123 µg/mL; in [10], more than 10 µg/mL; in assay [11], 0.0831 µg/mL; in [12], more than 10 µg/mL; in [13] it was more than 10 µg/mL; in assay [14] it was 0.0918 µg/mL. Further, the IC95 (pseudovirus neutralization) in [6] was 0.213 µg/mL; in [10], more than 10 µg/mL; in [11], 0.185 µg/mL; in [12], more than 10 µg/mL; in assay [13] it was more than 10 µg/mL; in [14] it was 0.205 µg/mL. In assay [7], this substance showed a neutralization IC50 of 9.44 µg/mL. Also, the IC50 in assay [8] was more than 50 µg/mL; in assay [9] it was 1.21 µg/mL.
On to 5145_B14 (PGT-127) (antibody), for which the neutralization IC50 in assay [7] was found to be 6.95 µg/mL. Moreover, the IC50 in [8] and in [9] was more than 50 µg/mL in each case.
As to PGV04 (antibody), the IC50 (µg/mL), pseudovirus neutralization in assay [20] was 22.4 µg/mL; in [21], 0.461 µg/mL; in assay [22], 0.309 µg/mL; in [23] it was 0.322 µg/mL; in assay [24], more than 50 µg/mL; in assay [25], 0.025 µg/mL. Also, the IC50 (µg/mL), pseudovirus neutralization in assay [26] was 0.088 µg/mL; in [27] it was 0.35 µg/mL; in assay [28], 0.097 µg/mL; in assay [29], more than 50 µg/mL; in [30], 0.303 µg/mL; in assay [31] it was 2.76 µg/mL. Also, the IC50 (µg/mL), pseudovirus neutralization in assay [32] was 0.047 µg/mL; in assay [33], 0.164 µg/mL; in assay [34], 0.58 µg/mL; in [35], more than 50 µg/mL; in assay [36], 0.184 µg/mL; in [37], 0.25 µg/mL. In addition, the IC50 (µg/mL), pseudovirus neutralization was determined as 0.268 µg/mL in assay [38] and 5.99 µg/mL in assay [39]. Besides, the figures for the IC50, pseudovirus neutralization in assay [40] and in assay [41] were 0.055 µg/mL and 0.14 µg/mL, respectively.
Regarding VRC01 (antibody), the IC50 (µg/mL), pseudovirus neutralization is 0.13 µg/mL in assay [15]; 1.75 µg/mL in [16]; 1.81 µg/mL in assay [17]; 0.117 µg/mL in assay [18]; 0.1 µg/mL in assay [19].
On to b12 (antibody), for which the IC50 (µg/ml), pseudovirus neutralization in assay [1] was more than 50 µg/mL.
